The values below are quoted from earlier work in paper PMC5418926.

The series deals with Lys53 (UniProt position 53, YGGQTKPIFRK). The experiment in a line: chemical modification (inferred: crosslinking with periodate-oxidised tRNA); not described in this article.

In the case of “60S ribosomal protein eL42 (L36a-like / RPL36AL), endogenous, in the human 80S ribosome (Homo sapiens)”, the pKa (endogenous eL42 in situ in the human 80S ribosome, crosslinked with tRNAox) was 6.9 ± 0.1.

Take “60S ribosomal protein eL42 (formerly L36a / RPL36A), recombinant (Homo sapiens)”: where the note is “recombinant eL42 off the ribosome”, the pKa is listed as 6.9 + 0.1.

By pKa is commonly meant the negative logarithm of the acid dissociation constant.
